From the supplement of paper PMC9732359
± gives the uncertainty stated by the source.

Experiment: protein stability index of a GFP-peptide fusion (yeast GPS) (PSI 1-4); higher = more stable; sorted into four equal gates, so the index is relative within each strain
Method in brief: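 Tiled 17-residue peptides from yeast proteins were fused downstream of GFP on a plasmid that also expresses Cherry, and the pooled library was carried in yeast. Mid-log cultures grown in leucine-free medium were sorted into four equal gates by GFP/Cherry fluorescence ratio. Plasmids from each gate were PCR-amplified and Illumina-sequenced, and reads were assigned to strains by barcodes. Each peptide's protein stability index is the sum, over gates, of the gate's read frequency multiplied by its gate number.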

Row | Sequence | protein stability index (doa10∆) | protein stability index (pdr5∆) | protein stability index (san1∆) | protein stability index (ubr1∆)
1 | NDLRDMILNYNPSQGVS [UBP6] | 2.21 ± 0.072 | 3.23 ± 0.12 | 3.16 ± 0.077 | 3.18 ± 0.064
2 | DVIAWKNVLANSIWGSS [ITC1] | 2.83 ± 0.14 | 2.95 ± 0.088 | 3.49 ± 0.12 | 3.28 ± 0.072
3 | RDVYVFDKVEVQVRSVM [DIS3] | 2.92 ± 0.067 | 3 ± 0.068 | 3.33 ± 0.052 | 3.24 ± 0.071
4 | EYNEDSRLCTPIPVQGE [RPN13] | – | – | 2.27 ± 0.14 | 3.11 ± 0.28
5 | RGFFHLNEALLQCPMLY [CSN12] | 2.06 ± 0.071 | 2.2 ± 0.058 | 1.9 ± 0.13 | 1.99 ± 0.056
6 | LNEMLNTRKNMSISLES [DIS3] | 2.66 ± 0.053 | 2.91 ± 0.066 | 2.63 ± 0.069 | 2.95 ± 0.051
7 | KVDINADSAVNRQTLMF [PRP28] | 3.32 ± 0.06 | 3.32 ± 0.072 | 3.08 ± 0.055 | 3.17 ± 0.052
8 | NMFELAQQLVGVYKRDN [SMC4] | 1.08 ± 0.11 | 1.61 ± 0.12 | 1.61 ± 0.16 | 1.37 ± 0.13
9 | SAKPTFSFSKSEEERKS [YOR098C/NUP1] | 1.96 ± 0.14 | – | 1.93 ± 0.24 | 2.79 ± 0.25
10 | NFEAVFERLVPRGTAKL [SMC3] | 2.93 ± 0.15 | 2.84 ± 0.16 | – | 2.83 ± 0.042
11 | GSQFIVVSLKEGMFANA [SMC2] | – | 3.64 ± 0.24 | 3.44 ± 0.2 | 3.4 ± 0.057
12 | KAPEQFIENFLTNDTFE [YML103C/NUP188] | 2.84 ± 0.12 | 3.16 ± 0.1 | 2.93 ± 0.12 | 3.02 ± 0.075
13 | DDELMNWRRLSGRNIHL [SSN2] | 3 ± 0.088 | 2.91 ± 0.074 | 3.01 ± 0.087 | 3.19 ± 0.09
14 | DCQFWETWLGSQCRLHE [PRE2] | 2.22 ± 0.096 | 2.1 ± 0.14 | 2.59 ± 0.11 | 2.6 ± 0.09
15 | EGSTIRYLAVTLQDIGF [YMR129W/POM152] | 2.5 ± 0.048 | 2.58 ± 0.04 | 2.52 ± 0.052 | 2.71 ± 0.041
16 | DPLLSLYNFLHKYVLTL [RGR1] | 2.5 ± 0.043 | 2.12 ± 0.07 | 2.49 ± 0.05 | 2.12 ± 0.046
17 | TLSEPVQGELKPTVILK [FAS1] | 2.23 ± 0.054 | 2.22 ± 0.059 | 2.08 ± 0.072 | 1.63 ± 0.038
18 | SEIWDVSRGQSAVLLET [PRP8] | 2.83 ± 0.16 | 2.65 ± 0.15 | 3.12 ± 0.26 | 2.04 ± 0.091
19 | TFVYILEKLIFDMTNHY [SRB8] | 1.71 ± 0.061 | 1.93 ± 0.042 | 1.69 ± 0.1 | 1.69 ± 0.039
20 | NQIPVTEHSKVTRFDEK [SRB6] | 2.28 ± 0.05 | 3.02 ± 0.049 | 2.86 ± 0.052 | 2.87 ± 0.048
21 | KISNSEFFNPEIFHLLQ [SIN4] | 2.13 ± 0.079 | 1.74 ± 0.072 | 1.61 ± 0.087 | 2.16 ± 0.07
22 | LFSLLELGEQKCQELVT [RRP46] | 1.97 ± 0.061 | 1.8 ± 0.056 | 1.87 ± 0.093 | 2.1 ± 0.058
23 | QIRSADEPMTTFYKCVN [RPC11] | 2.26 ± 0.2 | 2.54 ± 0.078 | 2.2 ± 0.14 | 2.77 ± 0.085
24 | SAINQYNRRQDKKNKRL [SNF2] | 3.13 ± 0.083 | 3.34 ± 0.082 | 3.23 ± 0.074 | 3.25 ± 0.087
25 | SIRSRRPYQVNVLIGGY [PRE1] | 2.34 ± 0.17 | 2.88 ± 0.09 | 1.71 ± 0.19 | 3.04 ± 0.1
26 | QEPELSLDQGDAEEDSQ [SMC4] | 3.45 ± 0.16 | – | – | 3.02 ± 0.14

Row | Sequence | protein stability index (doa10∆) | protein stability index (pdr5∆) | protein stability index (san1∆) | protein stability index (ubr1∆)
27 | IPPDQQRLIFAGKQLED [RPS31] | 2.92 ± 0.077 | 2.73 ± 0.06 | 3.18 ± 0.038 | 3.16 ± 0.035
28 | LLQLIQSQPQEKFSEKM [ECM29] | 2.49 ± 0.098 | 2.02 ± 0.098 | 2.46 ± 0.093 | 2.47 ± 0.071
29 | APGASVPATAAPGTEAG [SWI1] | 2.99 ± 0.094 | 3.05 ± 0.075 | 2.92 ± 0.079 | 3.18 ± 0.07
30 | FEQKGSQTTTNDSKEES [YLR335W/NUP2] | 3.27 ± 0.12 | 3.13 ± 0.077 | 2.98 ± 0.11 | 3.23 ± 0.05
31 | MKYTQYPNSSKLKRNSD [LIN1] | 3.17 ± 0.089 | 3.03 ± 0.079 | 2.99 ± 0.05 | 3.14 ± 0.094
32 | SYNWGAKAKRRHTTGTG [RPL37A] | 3.37 ± 0.097 | 3.15 ± 0.055 | 3.13 ± 0.078 | 3.34 ± 0.043
33 | SDFISKLEYPHTDVSSS [RPN3] | 2.56 ± 0.047 | 2.88 ± 0.054 | 2.82 ± 0.047 | 2.5 ± 0.045
34 | LKRNRIRNARSIRAEAV [POP1] | 1.71 ± 0.15 | 2.44 ± 0.1 | – | 2.59 ± 0.13
35 | IFGGAGGVPTTSFGQPQ [YOR098C/NUP1] | 1.57 ± 0.061 | 1.58 ± 0.074 | 1.55 ± 0.11 | 1.4 ± 0.053
36 | VPPMKLAYSKIVNGQTF [YMR129W/POM152] | 1.37 ± 0.068 | 1.48 ± 0.072 | 1.09 ± 0.12 | 1.65 ± 0.053
37 | ALQNLSQLPITPMTRIS [YGL172W/NUP49] | 2.31 ± 0.13 | 1.95 ± 0.12 | 1.66 ± 0.21 | 1.92 ± 0.065
38 | TLIIDQVRKDLGNVIVP [NUT1] | 3.07 ± 0.29 | – | 3.12 ± 0.21 | 2.89 ± 0.14
39 | AELRPLQFKSIREIDVA [RPS7A] | 2.26 ± 0.093 | 1.67 ± 0.1 | 1.97 ± 0.24 | 1.43 ± 0.068
40 | GRGGSGWKPYYKLFIWL [YML031W/NDC1] | 1.5 ± 0.055 | 1.78 ± 0.052 | 1.41 ± 0.089 | 1.31 ± 0.049
41 | ARIFEFPKTTVAALRFT [RPL18A] | 1.94 ± 0.11 | 1.67 ± 0.076 | 2 ± 0.19 | 1.79 ± 0.098
42 | NIDTITDAMTESQPKQT [MCD1] | 2.71 ± 0.14 | 3.02 ± 0.11 | 3 ± 0.076 | 3.32 ± 0.087
43 | RPNGRKDHDLKIPLPEV [POP1] | 3.06 ± 0.055 | 3.18 ± 0.058 | 2.99 ± 0.073 | 3.15 ± 0.065
44 | CSPKLPVEKVQRIAKND [DLS1] | 2.86 ± 0.29 | 3.32 ± 0.12 | 3.17 ± 0.13 | 3.4 ± 0.12
45 | TVRVDKASTYGELVLDI [SNF12] | 2.38 ± 0.06 | 2.38 ± 0.053 | 2.02 ± 0.086 | 1.81 ± 0.044
46 | TDQLIQNIETRQLANLI [NUT1] | 3.15 ± 0.11 | 3.14 ± 0.12 | 2.94 ± 0.13 | 3.01 ± 0.051
47 | IPLDNYDDFIYLSDLKQ [PCI8] | 2.11 ± 0.12 | 2.04 ± 0.14 | 1.77 ± 0.25 | 2.62 ± 0.12
48 | MRLIKRVRAESLHSNSF [YJL039C/NUP192] | 2.12 ± 0.11 | 1.64 ± 0.14 | – | 2.44 ± 0.12
49 | FRSLFFRSYMDQEKKYG [RPB2] | 1.7 ± 0.051 | 2.14 ± 0.07 | 2.61 ± 0.078 | 2.57 ± 0.038
50 | KSNRSYSIALSNVAAIF [GAL11] | 1.76 ± 0.08 | 1.67 ± 0.097 | 1.4 ± 0.27 | 1.43 ± 0.064
51 | AGYTTHLMKRIQKGPVR [RPS17A] | 2.2 ± 0.11 | 2.97 ± 0.15 | 1.86 ± 0.16 | 2.57 ± 0.096
52 | MGKSHGYRSRTRYMFQR [RPL21A] | 3.15 ± 0.094 | 3.25 ± 0.093 | 3.3 ± 0.056 | 3.32 ± 0.055
